{"source": "patent US20050064384A1", "about": "“Recruitment of mst1 or mst2 protein kinase to induce apoptosis in eukaryotic cells” (priority 2001, published 2005)", "target": "FLAG-tagged wild type (wt) MST1 (mouse) (UniProt Q9JI11)", "sequence (Q9JI11 other isoform, or with tags, fused parts or gaps limits assumed)": "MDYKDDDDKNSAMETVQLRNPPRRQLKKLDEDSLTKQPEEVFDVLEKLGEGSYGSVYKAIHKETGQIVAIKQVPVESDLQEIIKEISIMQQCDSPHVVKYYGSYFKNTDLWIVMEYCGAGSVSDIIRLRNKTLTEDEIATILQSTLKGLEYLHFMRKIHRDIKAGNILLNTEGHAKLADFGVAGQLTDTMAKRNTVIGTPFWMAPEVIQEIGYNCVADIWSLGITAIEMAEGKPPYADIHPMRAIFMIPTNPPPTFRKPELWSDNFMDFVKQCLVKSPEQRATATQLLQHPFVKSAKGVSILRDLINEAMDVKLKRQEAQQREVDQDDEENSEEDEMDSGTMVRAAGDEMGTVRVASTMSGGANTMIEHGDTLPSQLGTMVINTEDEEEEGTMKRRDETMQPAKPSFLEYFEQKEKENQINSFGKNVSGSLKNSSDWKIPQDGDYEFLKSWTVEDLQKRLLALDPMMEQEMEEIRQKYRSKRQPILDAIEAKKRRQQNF", "test": "cell-based or functional assay", "data": [{"sequence": "NORECAAX (NORE fused to the Ki-Ras4B membrane-association CAAX segment) (from UniProt Q5EBH1 1-413)", "values": [{"measurement": "fraction of annexin V-stained NIH3T3 cells", "result": 50, "unit": "%"}]}]}
